The values below come from paper PMC4678826, “Different genome stability proteins underpin primed and naïve adaptation in E. coli CRISPR-Cas immunity”.

Residue numbers refer to the chain shown, from its start.

Data set [1] concerns the target T1, Cas1 R123G (Escherichia coli, UniProt Q46896 1-305, R123G).
T1 sequence: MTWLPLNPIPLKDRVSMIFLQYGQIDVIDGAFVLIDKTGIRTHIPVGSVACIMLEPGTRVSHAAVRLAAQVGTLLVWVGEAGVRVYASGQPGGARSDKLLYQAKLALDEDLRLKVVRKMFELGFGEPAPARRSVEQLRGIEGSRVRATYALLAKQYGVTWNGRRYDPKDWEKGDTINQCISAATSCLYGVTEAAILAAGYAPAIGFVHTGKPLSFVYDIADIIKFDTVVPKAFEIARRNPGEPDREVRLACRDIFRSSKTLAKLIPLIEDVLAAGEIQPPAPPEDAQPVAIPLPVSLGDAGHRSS
The experiment in a line: EMSA; 5 mM EDTA; EMSA: 7 mM Tris-HCl pH 8.5, 9% glycerol, 50 mM NaCl, 100 ug/ml BSA, 5 mM EDTA, 10 min ambient temperature, 6 nM DNA, 5% acrylamide TBE gel at room temperature. The settings on record: protein: recombinant; tags: N-terminal His6; chain copies: 2; label: 5'-32P; fork; 25 nt leading arm duplex, 26 nt ssDNA flap. Background: Mobility shift assays separate free from complexed probe on a gel.

Data set [2] concerns the target T2, Cas1 R84G (Escherichia coli, UniProt Q46896 1-305, R84G).
T2 sequence: T1 sequence with R84G, G123R
The data set is described as above. The settings on record: protein: recombinant; tags: N-terminal His6; chain copies: 2; label: 5'-32P; fork; 25 nt leading arm duplex, 26 nt ssDNA flap.

Data set [3] deals with T3, Cas1 R138G (Escherichia coli, UniProt Q46896 1-305, R138G).
T3 sequence: T1 sequence with G123R, R138G
Described as above. The settings on record: protein: recombinant; tags: N-terminal His6; chain copies: 2; label: 5'-32P; fork; 25 nt leading arm duplex, 26 nt ssDNA flap.

Data set [4] concerns the target T4, Cas1;Cas2 (Escherichia coli;Escherichia coli, UniProt Q46896;P45956 1-305;1-94, |).
T4 sequence 1: T1 sequence with G123R
T4 sequence 2: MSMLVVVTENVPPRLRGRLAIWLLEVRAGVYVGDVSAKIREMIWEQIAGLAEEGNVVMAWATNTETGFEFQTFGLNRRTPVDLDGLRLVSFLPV
The data set is described as follows: EMSA; 5 mM EDTA; super-shifted complex Y; EMSA: 7 mM Tris-HCl pH 8.5, 9% glycerol, 50 mM NaCl, 100 ug/ml BSA, 5 mM EDTA, 10 min ambient temperature, 6 nM DNA, 5% acrylamide TBE gel at room temperature. The note with it: protein: recombinant;recombinant; tags: N-terminal His6;N-terminal His6; chain copies: 4;2; label: 5'-32P; fork; 25 nt leading arm duplex, 26 nt ssDNA flap.

B1: fork-1 (mixed)
DNA 1: CAACGTCATAGACGATTACATTGCTACATGGAGCTGTCTAGAGGATCCGA
DNA 2: TCGGATCCTCTAGACAGCTCCATGATCACTGGCACTGGTAGAATTCGGC
DNA 3: GCCGAATTCTACCAGTGCCAGTGAT
B1: the binding result is on record as “no binding” in data set [1], “no binding” in data set [2], “no binding” in data set [3] and “binds” in data set [4].
